Literature values in patent publication US20230313258A1, “CROSS-LINIKING METHODS” (The University of Bath, priority 2020, published 2023).

Molecular target: dimeric AP-1 transcription factor (Homo sapiens, UniProt P05412)
Settings: previously identified (Mason et al. 2006)

Chain of dimeric AP-1 transcription factor (P05412 whole entry): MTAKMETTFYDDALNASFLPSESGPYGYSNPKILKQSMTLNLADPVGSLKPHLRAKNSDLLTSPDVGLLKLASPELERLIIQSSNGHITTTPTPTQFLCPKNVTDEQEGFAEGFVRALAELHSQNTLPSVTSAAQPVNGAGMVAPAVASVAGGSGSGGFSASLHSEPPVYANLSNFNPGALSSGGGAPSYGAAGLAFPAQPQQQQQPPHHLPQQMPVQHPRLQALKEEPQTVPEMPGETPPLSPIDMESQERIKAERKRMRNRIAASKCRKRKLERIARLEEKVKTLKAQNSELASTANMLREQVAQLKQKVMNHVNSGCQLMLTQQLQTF

With “FosW: parent peptide, SEQ ID NO: 1, ASLDELQAEIEQLEERNYALRKEIEDLQKQLEKLGAP; previously identified inhibitor of AP-1” as the substance, how does the “ability to dissociate AP-1 from its DNA binding site” value read?
The value was “able to dissociate the dimeric AP-1 transcription factor from its DNA binding site”.
